Results as given in paper PMC6097701.

Tests used:
[1] = biological target: HA-tagged human surfeit locus protein 4 (HA-Surf4) (human) (UniProt O15260); test: co-sedimentation; crude microsomes from Surf4^KO HEK293A cells transfected with HA-Surf4, permeabilised with CEB (digitonin) 30 min on ice; 400 nM GH (conditioned media in KHMC buffer) 1 hr on ice; pelleted at >100,000 x g; bound GH released with … peptide and read by hGH ELISA; controls: microsomes without CEB and microsomes of untransfected Surf4^KO cells
Sequence of UniProt O15260 (O15260 whole entry): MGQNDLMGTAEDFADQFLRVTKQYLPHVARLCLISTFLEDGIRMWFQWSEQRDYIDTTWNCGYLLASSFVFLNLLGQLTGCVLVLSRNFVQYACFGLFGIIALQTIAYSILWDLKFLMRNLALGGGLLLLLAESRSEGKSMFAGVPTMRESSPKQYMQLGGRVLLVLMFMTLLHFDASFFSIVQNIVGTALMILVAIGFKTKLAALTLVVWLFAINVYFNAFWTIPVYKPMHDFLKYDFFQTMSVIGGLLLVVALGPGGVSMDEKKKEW

[2] = biological target: HA-tagged human surfeit locus protein 4 (HA-Surf4) (human) (UniProt O15260); test: binding to immuno-isolated microsomes on magnetic beads, bound GH read by ELISA; titration; microsomes of HA-Surf4-transfected HEK293A cells held on Protein G-Dynabeads with anti-Surf4 carboxy-terminal antibody, CEB-permeabilised; 0, 100, 200, 300, 400 or 800 nM GH for 1 hr at RT in KHMC buffer; GH eluted with … peptide; estimate of the binding constant from half-maximal …

APV-GH (human growth hormone-1 starting with alanine-proline-valine) (from UniProt P01241 27-217) (natural protein)
fold increase in binding after digitonin permeabilisation of the microsomes [1]: > 5 fold | Kd [2]: 200 to 300 nM
